B1: EBOV NP residues 1–457 (NPNTD) (domain or fragment)
chain: MDSRPQKIWMAPSLTESDMDYHKILTAGLSVQQGIVRQRVIPVYQVNNLEEICQLIIQAFEAGVDFQESADSFLLMLCLHHAYQGDYKLFLESGAVKYLEGHGFRFEVKKRDGVKRLEELLPAVSSGKNIKRTLAAMPEEETTEANAGQFLSFASLFLPKLVVGEKACLEKVQRQIQVHAEQGLIQYPTAWQSVGHMMVIFRLMRTNFLIKFLLIHQGMHMVAGHDANDAVISNSVAQARFSGLLIVKTVLDHILQKTERGVRLHPLARTAKVKNEVNSFKAALSSLAKHGEYAPFARLLNLSGVNNLEHGLFPQLSAIALGVATAHGSTLAGVNVGEQYQQLREAATEAEKQLQQYAESRELDHLGLDDQEKKILMNFHQKKNEISFQQTNAMVTLRKERLAKLTEAITAASLPKTSGHYDDDDDIPFPGPINDDDNPGHQDDDPTDSQDTTIPDV

Assays:
[1] = system: ΔNPNTD (NP 25-457) (Zaire ebolavirus (EBOV)); assay: filter binding
[2] = target: the molecule itself; assay: SEC

Molecule | Kd [1] [nM] | binding result [2]
20 nt ssRNA | 620 | –
B1 | – | binds

Source: PMC4599368 (Cell reports, 2015)
